The record followed here is paper PMC4883682.

The target of this assay is C-terminally labeled STIM1(del302-448) (STIM1(del302-448)-AcGFP / STIM1(del302-448)-mApple) (human) (UniProt Q13586). The experiment in a line: cross-linking; chemical crosslinking with dithiobis(succinymidyl propionate); constructs separately expressed; unstimulated state (Supplemental Figure S2).

The term stoichiometry N denotes a count of units in the complex or per binding partner. “C-terminally labeled STIM1(del302-448) (STIM1(del302-448)-AcGFP / STIM1(del302-448)-mApple) (from UniProt Q13586 23-685) (natural protein)” gave a stoichiometry N of 2.
